Measurements from article PMC4974476, “Structural basis for LIN54 recognition of CHR elements in cell cycle-regulated promoters”.

Columns and labels:
LIN54 DBD [1] = molecular target: T1, LIN54 DBD (Homo sapiens, UniProt Q6MZP7 515-646); experiment: fluorescence polarization; ITC (25 C) and FP: 20 mM Tris, 150 mM NaCl, 0.1% Tween 20, pH 8.0; NMR: 35 mM MES, 75 mM NaCl, 5% D2O, pH 6.0, 25 C; conditions: protein: recombinant, tags: N-terminal GST with TEV site, cleaved, blunt
LIN54 DBD-N = LIN54 DBD-N (Homo sapiens, UniProt Q6MZP7 515-574); experiment: as above; conditions: protein: recombinant; tags: N-terminal GST with TEV site, cleaved; label: 3' TAMRA on strand 1; blunt
Chain of LIN54 DBD-N (Q6MZP7 515-574): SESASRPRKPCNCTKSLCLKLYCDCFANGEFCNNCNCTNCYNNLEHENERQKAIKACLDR

LIN54 DBD-C [2] = molecular target: T2, LIN54 DBD-C (Homo sapiens, UniProt Q6MZP7 589-646); experiment: as above; conditions: protein: recombinant; tags: N-terminal GST with TEV site, cleaved; label: 3' TAMRA on strand 1; blunt
T2 sequence (Q6MZP7 589-646): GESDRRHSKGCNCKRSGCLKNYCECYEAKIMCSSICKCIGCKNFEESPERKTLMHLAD

LIN54 DBD Y610F = LIN54 DBD Y610F (Homo sapiens, UniProt Q6MZP7 515-646, Y610F); experiment: ITC; ITC (25 C) and FP: 20 mM Tris, 150 mM NaCl, 0.1% Tween 20, pH 8.0; NMR: 35 mM MES, 75 mM NaCl, 5% D2O, pH 6.0, 25 C; conditions: protein: recombinant; tags: N-terminal GST with TEV site, cleaved; blunt
Chain of LIN54 DBD Y610F (Q6MZP7 515-646 Y610F): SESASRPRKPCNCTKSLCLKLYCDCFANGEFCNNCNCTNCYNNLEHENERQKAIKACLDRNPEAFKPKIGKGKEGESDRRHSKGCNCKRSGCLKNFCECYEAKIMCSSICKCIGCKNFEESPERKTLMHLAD

LIN54 DBD [3] = molecular target: T1, LIN54 DBD; experiment: as above; conditions: protein: recombinant; tags: N-terminal GST with TEV site, cleaved; blunt
LIN54 DBD Y610A = LIN54 DBD Y610A (Homo sapiens, UniProt Q6MZP7 515-646, Y610A); experiment: as above; conditions: protein: recombinant; tags: N-terminal GST with TEV site, cleaved; blunt
Chain of LIN54 DBD Y610A (Q6MZP7 515-646 Y610A): as the sequence (Q6MZP7 515-646 Y610F) above, with F96A counted along it

LIN54 DBD Y536F = LIN54 DBD Y536F (Homo sapiens, UniProt Q6MZP7 515-646, Y536F); experiment: as above; conditions: protein: recombinant; tags: N-terminal GST with TEV site, cleaved; blunt
Chain of LIN54 DBD Y536F (Q6MZP7 515-646 Y536F): as the sequence (Q6MZP7 515-646 Y610F) above, with Y22F, F96Y counted along it

LIN54 DBD Y536A = LIN54 DBD Y536A (Homo sapiens, UniProt Q6MZP7 515-646, Y536A); experiment: as above; conditions: protein: recombinant; tags: N-terminal GST with TEV site, cleaved; blunt
Chain of LIN54 DBD Y536A (Q6MZP7 515-646 Y536A): as the sequence (Q6MZP7 515-646 Y610F) above, with Y22A, F96Y counted along it

LIN54 DBD Y536R = LIN54 DBD Y536R (Homo sapiens, UniProt Q6MZP7 515-646, Y536R); experiment: as above; conditions: protein: recombinant; tags: N-terminal GST with TEV site, cleaved; blunt
Chain of LIN54 DBD Y536R (Q6MZP7 515-646 Y536R): as the sequence (Q6MZP7 515-646 Y610F) above, with Y22R, F96Y counted along it

LIN54 DBD Y610R = LIN54 DBD Y610R (Homo sapiens, UniProt Q6MZP7 515-646, Y610R); experiment: as above; conditions: protein: recombinant; tags: N-terminal GST with TEV site, cleaved; blunt
Chain of LIN54 DBD Y610R (Q6MZP7 515-646 Y610R): as the sequence (Q6MZP7 515-646 Y610F) above, with F96R counted along it

LIN54 DBD-C [4] = molecular target: T2, LIN54 DBD-C; experiment: NMR HSQC titration; 35 mM MES, 75 mM NaCl, pH 6.0, 25 C; ITC (25 C) and FP: 20 mM Tris, 150 mM NaCl, 0.1% Tween 20, pH 8.0; NMR: 35 mM MES, 75 mM NaCl, 5% D2O, pH 6.0, 25 C; conditions: protein: recombinant; tags: N-terminal GST with TEV site, cleaved; blunt

T1 sequence (Q6MZP7 515-646): as the sequence (Q6MZP7 515-646 Y610F) above, with F96Y counted along it

B1: CHR27 (dsDNA)
DNA 1: CCTTTAGCGCGGTGAGTTTGAAACTGTAA
DNA 2: TTACAGTTTCAAACTCACCGCGCTAAAGG
B1 was tested, and the Kd (LIN54 DBD [1]; label: 3' TAMRA on strand 1) was 0.43 ± 0.08 µM, the binding result (LIN54 DBD-N) was “no binding” and the binding result (LIN54 DBD-C [2]) was “no binding”.

B2: CHR13 (dsDNA)
DNA 1: GAGTTTGAAACTG
DNA 2: CAGTTTCAAACTC
In the case of B2, the binding result (LIN54 DBD Y610F) is reported as “no binding”, the Kd (LIN54 DBD [3]) is reported as 2.8 ± 0.1 µM and the binding result (LIN54 DBD Y610A) is reported as “no binding”. B2: no binding (LIN54 DBD Y536F); no binding (LIN54 DBD Y536A); no binding (LIN54 DBD Y536R). For the same binder, the binding result (LIN54 DBD Y610R) was “no binding” and the Kd (LIN54 DBD-C [4]) was 500 ± 100 µM.

B3: CHR13 (FP) (dsDNA)
DNA 1: GAGTTTGAAACTG
DNA 2: CAGTTTCAAACTC
B3 was tested, and the Kd (LIN54 DBD [1]) was 5 ± 2 µM.
